Laboratory results: patent US20230416360A1

What was measured:
[1] = molecular target: human CD22 (full length, on cells) (human) (UniProt P20273); assay: FACS, Raji cells
[2] = molecular target: human CD22 (full length, on cells) (human) (UniProt P20273); assay: FACS, CHO-K1-human CD22 1D9
[3] = molecular target: human CD22 (full length, on cells) (human) (UniProt P20273); assay: FACS, CHO-K1-human CD22 1G5
[4] = molecular target: human CD22 (full length, on cells) (human) (UniProt P20273); assay: FACS, CHO-K1-human CD22 2C4
[5] = molecular target: human CD22 (full length, on cells) (human) (UniProt P20273); assay: FACS, CHO-K1-human CD22 2C4 cells
[6] = molecular target: human CD22-ECD-His (human) (UniProt P20273); assay: ELISA, coated hCD22-ECD-His, antibody 10 nM
[7] = molecular target: human CD22-ECD-His (human) (UniProt P20273); assay: ELISA, coated hCD22-ECD-His, antibody 100 nM
[8] = molecular target: human CD22-ECD-His (human) (UniProt P20273); assay: ELISA, coated hCD22-ECD-His, antibody 0.01 nM
[9] = molecular target: human CD22-ECD-His (human) (UniProt P20273); assay: ELISA, coated hCD22-ECD-His, antibody 0.10 nM
[10] = molecular target: human CD22-ECD-His (human) (UniProt P20273); assay: ELISA, coated hCD22-ECD-His, antibody 0.001 nM
[11] = molecular target: human CD22-ECD-His (human) (UniProt P20273); assay: ELISA, coated hCD22-ECD-His, antibody 0.0001 nM
[12] = molecular target: human CD22-ECD-His (human) (UniProt P20273); assay: ELISA, coated hCD22-ECD-His, antibody 0.00001 nM
[13] = molecular target: cynomolgus monkey CD22 on peripheral blood B cells (cynomolgus monkey (Macaca fascicularis)); assay: FACS, cynomolgus PBMC, CD20+ B cells, antibody 1 nM
[14] = molecular target: cynomolgus monkey CD22 on peripheral blood B cells (cynomolgus monkey (Macaca fascicularis)); assay: FACS, cynomolgus PBMC, CD20+ B cells, antibody 10 nM
[15] = molecular target: cynomolgus monkey CD22 on peripheral blood B cells (cynomolgus monkey (Macaca fascicularis)); assay: FACS, cynomolgus PBMC, CD20+ B cells, antibody 100 nM

Cell mean fluorescence density [1]: 158
Max MFI [1]: 374
Cell mean fluorescence intensity [2]: 66
Cell mean fluorescence intensity [3]: 66
Cell mean fluorescence intensity [4]: 66
Max MFI [5]: 340
OD450 [6]: 0.08
OD450 [7]: 0.15
OD450 [8]: 0.06
OD450 [9]: 0.06
OD450 [10]: 0.06
OD450 [11]: 0.06
OD450 [12]: 0.05
Proportion of VHH-Fc antibody positive cells to B cells (%) [13]: 0%
Proportion of VHH-Fc antibody positive cells to B cells (%) [14]: 0%
Proportion of VHH-Fc antibody positive cells to B cells (%) [15]: 3%
Substance: anti-hel-hIgG1 (negative control antibody against chicken egg lysozyme)
